Laboratory results from patent publication USRE48267E1, “Variants of C-type natriuretic peptide” (priority 2009, dated 2020).
Where no end group is shown, it is not given here. [ ]: non-standard residue; d: D form. NMeL = CN[C@@H](CC(C)C)C(=O)O; Tle = CC(C)(C)[C@H](N)C(=O)O

Target: T1, NPR-B (natriuretic peptide receptor B), murine, expressed endogenously on NIH3T3 cells (murine, UniProt Q6VVW5 17-1047)
T1 sequence (looked up): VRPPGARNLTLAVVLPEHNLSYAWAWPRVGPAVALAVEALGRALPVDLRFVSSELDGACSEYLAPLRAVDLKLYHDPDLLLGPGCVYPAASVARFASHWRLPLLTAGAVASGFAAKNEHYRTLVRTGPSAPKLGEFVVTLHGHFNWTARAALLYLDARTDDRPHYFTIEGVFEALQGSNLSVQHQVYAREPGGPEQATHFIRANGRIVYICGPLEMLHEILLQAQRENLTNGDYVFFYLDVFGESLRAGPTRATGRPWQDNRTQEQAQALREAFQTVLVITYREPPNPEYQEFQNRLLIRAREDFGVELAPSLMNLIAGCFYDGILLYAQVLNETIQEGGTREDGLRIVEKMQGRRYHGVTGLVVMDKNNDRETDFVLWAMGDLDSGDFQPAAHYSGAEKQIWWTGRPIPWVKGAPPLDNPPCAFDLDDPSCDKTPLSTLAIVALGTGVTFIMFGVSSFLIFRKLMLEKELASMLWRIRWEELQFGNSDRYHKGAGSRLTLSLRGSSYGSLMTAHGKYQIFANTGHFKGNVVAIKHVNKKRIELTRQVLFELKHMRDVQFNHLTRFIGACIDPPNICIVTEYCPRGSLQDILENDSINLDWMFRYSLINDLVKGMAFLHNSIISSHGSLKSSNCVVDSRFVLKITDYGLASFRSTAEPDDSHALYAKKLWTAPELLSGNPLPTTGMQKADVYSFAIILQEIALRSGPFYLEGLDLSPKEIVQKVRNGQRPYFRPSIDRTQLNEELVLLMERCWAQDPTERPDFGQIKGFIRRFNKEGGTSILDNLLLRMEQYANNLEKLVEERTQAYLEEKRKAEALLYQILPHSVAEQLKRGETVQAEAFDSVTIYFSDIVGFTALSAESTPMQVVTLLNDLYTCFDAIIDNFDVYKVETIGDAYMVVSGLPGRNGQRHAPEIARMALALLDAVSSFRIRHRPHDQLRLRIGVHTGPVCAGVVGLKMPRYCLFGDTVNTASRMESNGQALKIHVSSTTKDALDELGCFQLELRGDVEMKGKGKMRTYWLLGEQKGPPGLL
Assay: cell-based or functional assay

B1: CNP22, C6-CH2-NH (reduced carbonyl) (peptide)
peptide: GLSKGCFGLKLDRIGSMSGLGC
modifications: ends and bridges not checked; also: backbone C=O of Cys6 reduced to CH2 (C6-CH2-NH isostere)
For B1, the “cGMP response rel. to 1 uM CNP22; 10 nM peptide, NIH3T3 cells” value was 6 rel. to 1 uM CNP22 (100) and the “cGMP response rel. to 1 uM CNP22; 1 uM peptide, NIH3T3 cells” value was 66 rel. to 1 uM CNP22 (100).

B2: CNP22, t-butyl-G8 (peptide)
peptide: GLSKGCF[Tle]LKLDRIGSMSGLGC
modifications: ends and bridges not checked
With B2 the “cGMP response rel. to 1 uM CNP22; 10 nM peptide, NIH3T3 cells” value was 2 rel. to 1 uM CNP22 (100) and the “cGMP response rel. to 1 uM CNP22; 1 uM peptide, NIH3T3 cells” value was 18 rel. to 1 uM CNP22 (100).

B3: CNP22, N-methyl-F7 (methylated amide) (peptide)
peptide: GLSKGCXGLKLDRIGSMSGLGC
modifications: N-methyl-Phe at 7
With B3 the “cGMP response rel. to 1 uM CNP22; 10 nM peptide, NIH3T3 cells” value was 2 rel. to 1 uM CNP22 (100) and the “cGMP response rel. to 1 uM CNP22; 1 uM peptide, NIH3T3 cells” value was 38 rel. to 1 uM CNP22 (100).

B4: CNP22, N-methyl-L20 (peptide)
peptide: GLSKGCFGLKLDRIGSMSG[NMeL]GC
modifications: ends and bridges not checked
With B4 the “cGMP response rel. to 1 uM CNP22; 10 nM peptide, NIH3T3 cells” value was 2 rel. to 1 uM CNP22 (100) and the “cGMP response rel. to 1 uM CNP22; 1 uM peptide, NIH3T3 cells” value was 5 rel. to 1 uM CNP22 (100).

B5: CNP22 (wild-type human CNP-22) (peptide)
peptide: GLSKGCFGLKLDRIGSMSGLGC
In the case of B5, the “cGMP response rel. to 1 uM CNP22; 10 nM peptide, NIH3T3 cells” value is reported as 46 rel. to 1 uM CNP22 (100) and the “cGMP response rel. to 1 uM CNP22; 1 uM peptide, NIH3T3 cells” value is reported as 100 rel. to 1 uM CNP22 (100).

B6: CNP22, D-F7 (D-Phe) (peptide)
peptide: GLSKGCXGLKLDRIGSMSGLGC
modifications: D-Phe at 7
B6 was tested, and the “cGMP response rel. to 1 uM CNP22; 10 nM peptide, NIH3T3 cells” value was 2 rel. to 1 uM CNP22 (100) and the “cGMP response rel. to 1 uM CNP22; 1 uM peptide, NIH3T3 cells” value was 6 rel. to 1 uM CNP22 (100).

B7: CNP22, N-methyl-L11 (peptide)
peptide: GLSKGCFGLK[NMeL]DRIGSMSGLGC
modifications: ends and bridges not checked
For B7, the “cGMP response rel. to 1 uM CNP22; 10 nM peptide, NIH3T3 cells” value was 10 rel. to 1 uM CNP22 (100) and the “cGMP response rel. to 1 uM CNP22; 1 uM peptide, NIH3T3 cells” value was 51 rel. to 1 uM CNP22 (100).

B8: CNP22, N-methyl-L9 (peptide)
peptide: GLSKGCFG[NMeL]KLDRIGSMSGLGC
modifications: ends and bridges not checked
For B8, the “cGMP response rel. to 1 uM CNP22; 10 nM peptide, NIH3T3 cells” value was 2 rel. to 1 uM CNP22 (100) and the “cGMP response rel. to 1 uM CNP22; 1 uM peptide, NIH3T3 cells” value was 8 rel. to 1 uM CNP22 (100).

B9: CNP22, N-methyl-L9, N-methyl-L20 (peptide)
peptide: GLSKGCFG[NMeL]KLDRIGSMSG[NMeL]GC
modifications: ends and bridges not checked
B9 was tested, and the “cGMP response rel. to 1 uM CNP22; 10 nM peptide, NIH3T3 cells” value was 1 rel. to 1 uM CNP22 (100) and the “cGMP response rel. to 1 uM CNP22; 1 uM peptide, NIH3T3 cells” value was 1 rel. to 1 uM CNP22 (100).
